Molecular target: Flu-m158-66-TCR, on Jurkat T cells

Substance “Influenza M158-66 ([…]) presented by HLA-A0201, single-chain trimer of pMHC displayed on the lentiviral surface (from UniProt P61769 21-119) (peptide-MHC)” has a percent of T cells GFP+ of over 87%.

Reference: patent US20250027073A1
